Measurements: patent US12084513 (dated 2024)

Columns and labels:
human C1s [1] = biological target: T1, human C1s (human); experiment: SPR pH 5.8 37C
T1 chain: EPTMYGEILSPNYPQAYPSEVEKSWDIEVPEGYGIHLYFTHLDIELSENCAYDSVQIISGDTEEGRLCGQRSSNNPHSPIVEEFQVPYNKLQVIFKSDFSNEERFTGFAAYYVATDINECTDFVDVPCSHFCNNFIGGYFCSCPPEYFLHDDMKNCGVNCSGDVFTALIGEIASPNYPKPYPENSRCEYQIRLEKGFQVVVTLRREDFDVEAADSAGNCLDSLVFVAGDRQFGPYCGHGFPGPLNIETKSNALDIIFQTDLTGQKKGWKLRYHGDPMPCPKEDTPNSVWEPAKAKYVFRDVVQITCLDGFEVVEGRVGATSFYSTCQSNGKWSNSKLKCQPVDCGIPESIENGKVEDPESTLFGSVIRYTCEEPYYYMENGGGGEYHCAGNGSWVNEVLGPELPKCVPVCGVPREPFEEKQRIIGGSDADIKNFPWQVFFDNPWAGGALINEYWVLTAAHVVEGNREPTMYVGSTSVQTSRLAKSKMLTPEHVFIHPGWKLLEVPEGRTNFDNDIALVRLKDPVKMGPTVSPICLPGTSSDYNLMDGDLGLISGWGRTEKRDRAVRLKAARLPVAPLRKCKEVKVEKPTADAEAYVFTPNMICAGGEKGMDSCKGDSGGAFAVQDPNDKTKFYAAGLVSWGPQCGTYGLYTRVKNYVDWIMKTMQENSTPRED

human C1s [2] = biological target: T1, human C1s; experiment: SPR pH 7.4 37C
human C1s [3] = biological target: T1, human C1s; experiment: SPR pH 7.4 37C
human C1s [4] = biological target: T1, human C1s; experiment: SPR pH 5.8 low Ca 37C
human C1s [5] = biological target: T1, human C1s; experiment: SPR pH 7.4 37C
human C1s [6] = biological target: T1, human C1s; experiment: SPR pH 5.8 37C
human C1s [7] = biological target: T1, human C1s; experiment: SPR pH 5.8 low Ca 37C, low response
human C1s [8] = biological target: T1, human C1s; experiment: SPR pH 5.8 37C, low response
human C1s [9] = biological target: T1, human C1s; experiment: SPR pH 7.4 37C
human C1s [10] = biological target: T1, human C1s; experiment: SPR pH 5.8 low Ca 37C, low response
human C1s [11] = biological target: T1, human C1s; experiment: SPR pH 5.8 37C
human C1s [12] = biological target: T1, human C1s; experiment: SPR pH 7.4 37C
human C1s [13] = biological target: T1, human C1s; experiment: SPR pH 5.8 37C, low response
human C1s [14] = biological target: T1, human C1s; experiment: SPR pH 7.4 37C, low response
human C1s [15] = biological target: T1, human C1s; experiment: SPR pH 5.8 37C

B1: IPN009VH2/IPN009VK3 (antibody, V domains shown)
VH: EVMLVESGGGLVKPGGSLRLSCAASGFTFSNYAMSWVRQAPGKGLEWVATISSGGSHTYYLDSVKGRFTISRDNSKDTLYLQMNSLRAEDTALYYCARLFTGYAMDYWGQGTLVTVSS
VL: QIVLTQSPATLSLSPGERATLSCTASSSVSSSYLHWYQQKPGKAPKLWIYSTSNLASGVPSRFSGSGSGTDYTLTISSLQPEDFATYYCHQYYRLPPITFGQGTKLEIK
Kd (human C1s [1]): 0.164 nM | Kd (human C1s [2]): 1.19 nM | Kd (human C1s [3]): 0.824 nM | Kd (human C1s [4]): 3.37 nM | Kd (human C1s [5]): 1.24 nM | Kd (human C1s [6]): 0.449 nM

B2: IPN92H0288/IPN93L0211 (antibody, V domains shown)
VH: EVMLVESGGGLVKPGGSLRLSCAASGFTFSNYAMSWVRQAPGKGLEWVATISSGGSHTYELDSVDGRFTISRDNSKDTLYLQMNSLRAEDTALYYCARLFTKHAMDYWGQGTLVTVSS
VL: QIVLTQSPATLSLSPGERATLSCTASSEVSESYLHWYQQKPGKAPKLWIYSTSNLASGVPSRFSGSGSGTDYTLTISSLQPEDFATYYCHQYYRLHPITFGQGTKLEIK
Kd (human C1s [7]): 10.4 nM | Kd (human C1s [8]): 16.5 nM | Kd (human C1s [9]): 1.67 nM | Kd (human C1s [2]): 1.11 nM | Kd (human C1s [6]): 83.1 nM

B3: IPN92H0033/IPN93L0021 (antibody, V domains shown)
VH: EVMLVESGGGLVKPGGSLRLSCAASGFTFSNYAMSWVRQAPGKGLEWVATISSGGSHTYYLDSVKGRFTISRDNSKDTLYLQMNSLRAEDTALYYCARLFTGHAMDYWGQGTLVTVSS
VL: QIVLTQSPATLSLSPGERATLSCTASSSVSSSYLHWYQQKPGKAPKLWIYSTSNLASGVPSRFSGSGSGTDYTLTISSLQPEDFATYYCHQHYRLPPITFGQGTKLEIK
Kd (human C1s [10]): 7.59 nM | Kd (human C1s [11]): 5.01 nM | Kd (human C1s [12]): 1.92 nM

B4: IPN009VH2/IPN93L0024 (antibody, V domains shown)
VH: EVMLVESGGGLVKPGGSLRLSCAASGFTFSNYAMSWVRQAPGKGLEWVATISSGGSHTYYLDSVKGRFTISRDNSKDTLYLQMNSLRAEDTALYYCARLFTGYAMDYWGQGTLVTVSS
VL: QIVLTQSPATLSLSPGERATLSCTASSSVSSSYLHWYQQKPGKAPKLWIYSTSNLASGVPSRFSGSGSGTDYTLTISSLQPEDFATYYCHQYYRLHPITFGQGTKLEIK
Kd (human C1s [1]): 3.87 nM | Kd (human C1s [2]): 3.4 nM | Kd (human C1s [3]): 2.46 nM | Kd (human C1s [4]): 22.3 nM | Kd (human C1s [6]): 4.32 nM

B5: IPN92H0033/IPN009VK3 (antibody, V domains shown)
VH: EVMLVESGGGLVKPGGSLRLSCAASGFTFSNYAMSWVRQAPGKGLEWVATISSGGSHTYYLDSVKGRFTISRDNSKDTLYLQMNSLRAEDTALYYCARLFTGHAMDYWGQGTLVTVSS
VL: QIVLTQSPATLSLSPGERATLSCTASSSVSSSYLHWYQQKPGKAPKLWIYSTSNLASGVPSRFSGSGSGTDYTLTISSLQPEDFATYYCHQYYRLPPITFGQGTKLEIK
Kd (human C1s [1]): 0.515 nM | Kd (human C1s [2]): 1.01 nM | Kd (human C1s [3]): 0.79 nM | Kd (human C1s [4]): 9.57 nM | Kd (human C1s [6]): 0.931 nM

B6: IPN92H0033/IPN93L0031 (antibody, V domains shown)
VH: EVMLVESGGGLVKPGGSLRLSCAASGFTFSNYAMSWVRQAPGKGLEWVATISSGGSHTYYLDSVKGRFTISRDNSKDTLYLQMNSLRAEDTALYYCARLFTGHAMDYWGQGTLVTVSS
VL: QIVLTQSPATLSLSPGERATLSCTASSSVSSSYLHWYQQKPGKAPKLWIYSTSNLASGVPSRFSGSGSGTDYTLTISSLQPEDFATYYCHQYHRHHPITFGQGTKLEIK
Kd (human C1s [10]): 13.9 nM | Kd (human C1s [13]): 2.59 nM | Kd (human C1s [14]): 3.59 nM

B7: IPN92H0288/IPN93L0058 (antibody, V domains shown)
VH: EVMLVESGGGLVKPGGSLRLSCAASGFTFSNYAMSWVRQAPGKGLEWVATISSGGSHTYELDSVDGRFTISRDNSKDTLYLQMNSLRAEDTALYYCARLFTKHAMDYWGQGTLVTVSS
VL: QIVLTQSPATLSLSPGERATLSCTASSEVSSSYLHWYQQKPGKAPKLWIYSTSNLASGVPSRFSGSGSGTDYTLTISSLQPEDFATYYCHQYYRLHPITFGQGTKLEIK
Kd (human C1s [7]): 7.96 nM | Kd (human C1s [9]): 0.838 nM | Kd (human C1s [2]): 0.611 nM | Kd (human C1s [15]): 19.5 nM | Kd (human C1s [6]): 40.1 nM

B8: IPN009VH2/IPN93L0021 (antibody, V domains shown)
VH: EVMLVESGGGLVKPGGSLRLSCAASGFTFSNYAMSWVRQAPGKGLEWVATISSGGSHTYYLDSVKGRFTISRDNSKDTLYLQMNSLRAEDTALYYCARLFTGYAMDYWGQGTLVTVSS
VL: QIVLTQSPATLSLSPGERATLSCTASSSVSSSYLHWYQQKPGKAPKLWIYSTSNLASGVPSRFSGSGSGTDYTLTISSLQPEDFATYYCHQHYRLPPITFGQGTKLEIK
Kd (human C1s [1]): 3.21 nM | Kd (human C1s [2]): 2.92 nM | Kd (human C1s [3]): 2.68 nM | Kd (human C1s [4]): 9.54 nM | Kd (human C1s [6]): 4.34 nM

B9: IPN92H0307/IPN93L0058 (antibody, V domains shown)
VH: EVMLVESGGGLVKPGGSLRLSCAASGFEFENYAMSWVRQAPGKGLEWVATISSGGSHTYELDSVDGRFTISRDNSKDTLYLQMNSLRAEDTALYYCARLFTKHAMDYWGQGTLVTVSS
VL: QIVLTQSPATLSLSPGERATLSCTASSEVSSSYLHWYQQKPGKAPKLWIYSTSNLASGVPSRFSGSGSGTDYTLTISSLQPEDFATYYCHQYYRLHPITFGQGTKLEIK
Kd (human C1s [7]): 4.95 nM | Kd (human C1s [9]): 1.93 nM | Kd (human C1s [2]): 1.34 nM | Kd (human C1s [15]): 19.5 nM | Kd (human C1s [6]): 38.1 nM

B10: IPN92H0012/IPN009VK3 (antibody, V domains shown)
VH: EVMLVESGGGLVKPGGSLRLSCAASGFTFSNYAMSWVRQAPGKGLEWVATHSSGGSHTYYLDSVKGRFTISRDNSKDTLYLQMNSLRAEDTALYYCARLFTGYAMDYWGQGTLVTVSS
VL: QIVLTQSPATLSLSPGERATLSCTASSSVSSSYLHWYQQKPGKAPKLWIYSTSNLASGVPSRFSGSGSGTDYTLTISSLQPEDFATYYCHQYYRLPPITFGQGTKLEIK
Kd (human C1s [5]): 10.5 nM

B11: IPN92H0033/IPN93L0024 (antibody, V domains shown)
VH: EVMLVESGGGLVKPGGSLRLSCAASGFTFSNYAMSWVRQAPGKGLEWVATISSGGSHTYYLDSVKGRFTISRDNSKDTLYLQMNSLRAEDTALYYCARLFTGHAMDYWGQGTLVTVSS
VL: QIVLTQSPATLSLSPGERATLSCTASSSVSSSYLHWYQQKPGKAPKLWIYSTSNLASGVPSRFSGSGSGTDYTLTISSLQPEDFATYYCHQYYRLHPITFGQGTKLEIK
Kd (human C1s [10]): 5.3 nM | Kd (human C1s [2]): 2.51 nM | Kd (human C1s [11]): 8.66 nM | Kd (human C1s [12]): 2.9 nM | Kd (human C1s [6]): 11.9 nM

B12: IPN009VH2/IPN93L0031 (antibody, V domains shown)
VH: EVMLVESGGGLVKPGGSLRLSCAASGFTFSNYAMSWVRQAPGKGLEWVATISSGGSHTYYLDSVKGRFTISRDNSKDTLYLQMNSLRAEDTALYYCARLFTGYAMDYWGQGTLVTVSS
VL: QIVLTQSPATLSLSPGERATLSCTASSSVSSSYLHWYQQKPGKAPKLWIYSTSNLASGVPSRFSGSGSGTDYTLTISSLQPEDFATYYCHQYHRHHPITFGQGTKLEIK
Kd (human C1s [10]): 4960 nM | Kd (human C1s [13]): 23.9 nM | Kd (human C1s [14]): 0.168 nM
